Results reported in paper PMC4336547 (Cellular and molecular life sciences : CMLS, 2011).

T1: murine claudin-3 wild type, untagged (Cld3wt) (mouse), Q9Z0G9
T1 chain: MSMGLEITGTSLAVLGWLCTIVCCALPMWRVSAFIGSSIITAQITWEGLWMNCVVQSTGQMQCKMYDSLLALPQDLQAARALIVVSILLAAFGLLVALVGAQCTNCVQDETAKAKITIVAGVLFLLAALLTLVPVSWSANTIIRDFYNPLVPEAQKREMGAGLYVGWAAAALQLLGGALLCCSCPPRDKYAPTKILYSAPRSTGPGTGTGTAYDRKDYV


How the values were obtained:
[1] = target: T1, murine claudin-3 wild type, untagged …; assay: contact enrichment; conditions: remark: other sources report otherwise
FRET or BRET = target: the molecule itself; assay: FRET or BRET

| Binder | percentage of contacts with EF > 1.5 (PE) [1] [%] | mean FRET efficiency against the negative control Cld5/CRFR1 (FRET or BRET) [fold] |
| --- | --- | --- |
| murine claudin-3 wild type, untagged (Cld3wt), Q9Z0G9 1-219 (natural protein) MSMGLEITGTSLAVLGWLCTIVCCALPMWRVSAFIGSSIITAQITWEGLWMNCVVQSTGQMQCKMYDSLLALPQDLQAARALIVVSILLAAFGLLVALVGAQCTNCVQDETAKAKITIVAGVLFLLAALLTLVPVSWSANTIIRDFYNPLVPEAQKREMGAGLYVGWAAAALQLLGGALLCCSCPPRDKYAPTKILYSAPRSTGPGTGTGTAYDRKDYV | 91 |  |
| mouse claudin-5 wild type, CFP or YFP fusion (Cld5wt-CFP / Cld5wt-YFP) (natural protein, UniProt O54942 1-218, looked up) MGSAALEILGLVLCLVGWVGLILACGLPMWQVTAFLDHNIVTAQTTWKGLWMSCVVQSTGHMQCKVYESVLALSAEVQAARALTVGAVLLALVALFVTLTGAQCTTCVAPGPVKARVALTGGALYAVCGLLALVPLCWFANIVVREFYDPTVPVSQKYELGAALYIGWAASALLMCGGGLVCCGAWVCTGRPEFSFPVKYSAPRRPTANGDYDKKNYV |  | 10 |
